The labels stand for the following.
B1: IGF1R-5_H3 (VHH)
VHH: QVQLVESGGGLVQPGGSLRLSCAASGRTIDNYAMAWSRQAPGKGLEFVATIDWGDGGTRYANSVKGRFTISRDNSKNTMYLQMNSLRAEDTAVYYCAMARQSRVNLDVARYDYWGQGTLVTVSS
notes: Humanized variant of IGF1R-5, expressed from pSJF2H in E. coli
B2: IGF1R-5_H6 (VHH)
VHH: EVQLVESGGGLVQPGGSLRLSCAASGRTIDNYAMAWSRQAPGKDREFVSTIDWGDGGTRYANSVKGRFTISRDNSKNTLYLQMNSLRAEDTAVYYCAMARQSRVNLDVARYDYWGQGTLVTVSS
notes: as for B1
B3: IGF1R-5_H5 (VHH)
VHH: QVQLVESGGGLVQPGGSLRLSCAASGRTIDNYAMAWSRQAPGKDREFVATIDWGDGGTRYANSVKGRFTISRDNSKGTMYLQMNSLRAEDTAVYSCAMARQSRVNLDVARYDYWGQGTLVTVSS
notes: as for B1
B4: IGF1R-5_H1 (VHH)
VHH: EVQLVESGGGLVQPGGSLRLSCAASGRTIDNYAMAWVRQAPGKGLEWVSTIDWGDGGTRYANSVKGRFTISRDNSKNTLYLQMNSLRAEDTAVYYCAMARQSRVNLDVARYDYWGQGTLVTVSS
notes: as for B1
B5: IGF1R-5_H2 (VHH)
VHH: QVQLVESGGGLVQPGGSLRLSCAASGRTIDNYAMAWVRQAPGKGLEWVATIDWGDGGTRYANSVKGRFTISRDNSKNTMYLQMNSLRAEDTAVYYCAMARQSRVNLDVARYDYWGQGTLVTVSS
notes: Humanized variant of IGF1R-5, expressed from pSJF2H in E. coli; also called IGF1R H2
B6: IGF1R-5 VHH (VHH)
VHH: QVKLEESGGGLVQAGGSLRLSCAASGRTIDNYAMAWSRQAPGKDREFVATIDWGDGGARYANSVKGRFTISRDNAKGTMYLQMNNLEPEDTAVYSCAMARQSRVNLDVARYDYWGQGTQVTVSS
notes: Llama VHH expressed in E. coli TG1 from vector pSJF2H and purified by IMAC; Monomeric by SEC; also called anti-IGF1R VHH IGF1R-5; wild-type IGF1R-5

In the assay the target is T1, recombinant extracellular portion of human IGF1R (IGF1R^933-His fragment) (human, UniProt P08069 31-933).
T1 construct: It holds a furin site (RKRR) between the alpha and beta subunits, so the protein may be cleaved into two disulphide-linked chains; also called h-IGF1R; recombinant human IGF1R; not shown: His tag from vector pCDN4/myc-His
T1 sequence (P08069 31-933): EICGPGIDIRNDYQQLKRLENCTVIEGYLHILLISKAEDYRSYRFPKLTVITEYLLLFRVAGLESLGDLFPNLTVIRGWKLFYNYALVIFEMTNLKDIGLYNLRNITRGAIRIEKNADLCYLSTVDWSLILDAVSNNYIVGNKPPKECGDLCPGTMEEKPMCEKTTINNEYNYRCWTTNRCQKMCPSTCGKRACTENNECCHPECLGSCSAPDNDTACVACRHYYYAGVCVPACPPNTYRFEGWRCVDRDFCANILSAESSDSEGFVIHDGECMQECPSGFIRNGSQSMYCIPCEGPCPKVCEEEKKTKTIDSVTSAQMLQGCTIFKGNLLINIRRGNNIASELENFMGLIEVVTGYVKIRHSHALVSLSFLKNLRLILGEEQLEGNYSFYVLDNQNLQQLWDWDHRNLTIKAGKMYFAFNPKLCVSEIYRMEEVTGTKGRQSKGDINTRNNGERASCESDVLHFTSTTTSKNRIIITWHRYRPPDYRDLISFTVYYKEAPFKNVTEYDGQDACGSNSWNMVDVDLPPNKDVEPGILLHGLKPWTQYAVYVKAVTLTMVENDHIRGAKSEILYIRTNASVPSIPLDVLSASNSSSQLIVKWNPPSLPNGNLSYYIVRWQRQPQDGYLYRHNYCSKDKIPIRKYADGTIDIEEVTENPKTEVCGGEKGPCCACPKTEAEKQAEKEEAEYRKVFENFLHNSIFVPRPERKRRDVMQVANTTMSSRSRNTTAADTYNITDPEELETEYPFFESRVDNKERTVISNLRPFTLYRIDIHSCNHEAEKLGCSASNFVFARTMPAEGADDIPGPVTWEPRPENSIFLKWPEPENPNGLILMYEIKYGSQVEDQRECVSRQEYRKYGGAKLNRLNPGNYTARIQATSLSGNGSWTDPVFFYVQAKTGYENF
Nature of the assay: SPR (BIACORE 3000), human IGF1R immobilized on CM5, VHH injected, 1:1 model, 25 C. The protocol:
Approximately 3000 Resonance Units (RU) of recombinant human IGF1R (R&D Systems) were immobilized on a Sensor chip CM5. Immobilization was carried out at a concentration of 10 μg/ml in 10 mM acetate at pH4.0 using the amine coupling kit supplied by the manufacturer. The remaining binding sites were blocked with 1M ethanolamine pH 8.5. An ethanolamine blocked surface was used as a reference surface. For the binding studies, analyses were carried out at 25° C. in 10 mM HEPES, pH7.4 containing 150 mM NaCl, 3 mM EDTA and 0.005% surfactant P20 (Polyoxyethylenesorbitan; GE Healthcare). […] Surfaces were regenerated with 10 mM glycine pH 2.0 with a contact time of 24 seconds. Data were analyzed with BIAevaluation 4.1 software (GE Healthcare).
A general note: SPR reads the build-up and loss of mass on a sensor chip optically.
As usually defined, the Kd is a measure of binding affinity in units of concentration. The term koff denotes the rate constant with which the complex falls apart. Usually kon stands for the second-order rate constant of association. In the case of B1, the Kd is 0.8 nM, the koff turned out to be 0.00041 s⁻¹ and the kon amounted to 520000 M⁻¹ s⁻¹.

Take B2: the Kd came to 1.7 nM, the koff amounted to 0.00072 s⁻¹ and the kon worked out at 430000 M⁻¹ s⁻¹.

With B3, the Kd stood at 1.6 nM, the koff came out at 0.0008 s⁻¹ and the kon stood at 500000 M⁻¹ s⁻¹.

Turning to B4, the Kd was 11 nM, the koff worked out at 0.0043 s⁻¹ and the kon amounted to 390000 M⁻¹ s⁻¹.

For the molecule B5, the Kd was determined as 7.5 nM, the koff came to 0.0029 s⁻¹ and the kon amounted to 380000 M⁻¹ s⁻¹.

In the case of B6, the Kd is 0.6 nM, the koff came to 0.00034 s⁻¹ and the kon is 530000 M⁻¹ s⁻¹.

For the origin of these results see US20170015748A1 (NATIONAL RESEARCH COUNCIL OF CANADA, published 2017).
